Source: patent US20260042834A1 (HBM ALPHA THERAPEUTICS, published 2026)
Positions count from the first letter of the chain named. One block for each binder: values may come before it.

Biological target: T1, corticotropin-releasing hormone (CRH) peptide (human and mouse (same sequence), not fully specified)
T1 peptide: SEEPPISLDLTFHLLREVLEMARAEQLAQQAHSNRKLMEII
Experiment: cell-based or functional assay

hCRHR1 Luciferase Reporter Assay IC50: 1.34 nM
B1: PR302341-49 (antibody, human IgG1, kappa, V domains shown)
VH: QVQLVQSGAEVKKPGASVKVSCKASGYTFTDYFMKWVRQAPGQGLEWMGVINPNNADIFYNQKFKGRVTMTVDKSTSTAYMELSSLRSEDTAVYYCARGTDRALFAYWGQGTLVTVSS
VL: DVVMTQTPLSSPVTLGQPASISCRSGQSIVHSEGNTYLEWYQQRPGQPPRLLIYKVSNRFSGVPDRFSGSGAGTDFTLKISRVEAEDLGVYYCFQGSHIPWTFGGGTKVEIKR

hCRHR1 Luciferase Reporter Assay IC50: 0.732 nM | mCrhr1 Luciferase Reporter Assay IC50: 4.09 nM
B2: PR302341-54 (antibody, human IgG1, kappa, V domains shown)
VH: B1 VH with N55Q, A56G
VL: B1 VL with E33S

hCRHR1 Luciferase Reporter Assay IC50: 0.571 nM | mCrhr1 Luciferase Reporter Assay IC50: 3.54 nM
B4: PR302341-58 (antibody, human IgG1, kappa, V domains shown)
VH: B1 VH with G44R, M70I, V72R, K74T, T76A
VL: B1 VL with T7S, S11L, E33D, G34A, P48S, A72S

hCRHR1 Luciferase Reporter Assay IC50: 1.04 nM | mCrhr1 Luciferase Reporter Assay IC50: 4 nM
B5: PR302341-59 (antibody, human IgG1, kappa, V domains shown)
VH: B1 VH with G44R, N55S, A56G, M70I, V72R, K74T, T76A
VL: B1 VL with T7S, S11L, E33D, G34A, P48S, A72S

hCRHR1 Luciferase Reporter Assay IC50: 0.878 nM | mCrhr1 Luciferase Reporter Assay IC50: 4.7 nM
B6: PR302341-60 (antibody, human IgG1, kappa, V domains shown)
VH: B1 VH with G44R, N55Q, A56G, M70I, V72R, K74T, T76A
VL: B1 VL with T7S, S11L, E33D, G34A, P48S, A72S

hCRHR1 Luciferase Reporter Assay IC50: 1.7 nM | mCrhr1 Luciferase Reporter Assay IC50: 5.36 nM
B7: PR302341-53 (antibody, human IgG1, kappa, V domains shown)
VH: B1 VH with N55S, A56G
VL: B1 VL with E33S

hCRHR1 Luciferase Reporter Assay IC50: 0.552 nM
B8: PR302341-69 (antibody, human IgG1, kappa, V domains shown)
VH: B1 VH with A56G
VL: B1 VL with E33S

hCRHR1 Luciferase Reporter Assay IC50: 0.573 nM | mCrhr1 Luciferase Reporter Assay IC50: 6.48 nM
B9: PR302341-57 (antibody, human IgG1, kappa, V domains shown)
VH: B1 VH with G44R, N55Q, A56G, M70I, V72R, K74T, T76A
VL: B1 VL with T7S, S11L, E33D, P48S, A72S

hCRHR1 Luciferase Reporter Assay IC50: 0.738 nM
B14: PR302341-56 (antibody, human IgG1, kappa, V domains shown)
VH: B1 VH with G44R, N55S, A56G, M70I, V72R, K74T, T76A
VL: B1 VL with T7S, S11L, E33D, P48S, A72S

More lines, now with the values behind:

B3: PR302341-68 (antibody, human IgG1, kappa, V domains shown)
VH: B1 VH with A56G
VL: B1 VL
hCRHR1 Luciferase Reporter Assay IC50: 0.418 nM

B10: PR302341-55 (antibody, human IgG1, kappa, V domains shown)
VH: B1 VH with G44R, M70I, V72R, K74T, T76A
VL: B1 VL with T7S, S11L, E33D, P48S, A72S
hCRHR1 Luciferase Reporter Assay IC50: 0.105 nM | mCrhr1 Luciferase Reporter Assay IC50: 3.19 nM

B11: PR302341-61 (antibody, human IgG1, kappa, V domains shown)
VH: B1 VH with G44R, M70I, V72R, K74T, T76A
VL: B1 VL with T7S, S11L, P48S, A72S
hCRHR1 Luciferase Reporter Assay IC50: 1.88 nM | hCRHR1 Reporter IC50: 1.82 nM

B12: PR302341-52 (antibody, human IgG1, kappa, V domains shown)
VH: B1 VH
VL: B1 VL with E33S
hCRHR1 Luciferase Reporter Assay IC50: 0.946 nM | mCrhr1 Luciferase Reporter Assay IC50: 3.29 nM

B13: PR302341-67 (antibody, human IgG1, kappa, V domains shown)
VH: B1 VH with A56G
VL: B1 VL with E33D, G34A
hCRHR1 Luciferase Reporter Assay IC50: 0.128 nM

B15: PR302341-51 (antibody, human IgG1, kappa, V domains shown)
VH: B1 VH with N55Q, A56G
VL: B1 VL
hCRHR1 Luciferase Reporter Assay IC50: 1.66 nM

B16: PR302341-50 (antibody, human IgG1, kappa, V domains shown)
VH: B1 VH with N55S, A56G
VL: B1 VL
hCRHR1 Luciferase Reporter Assay IC50: 1.48 nM
